# Data: paper PMC11602165, “A bacterial transcription activator dedicated to the expression of the enzyme catalyzing the first committed step in fatty acid biosynthesis” (Nucleic Acids Research, 2024)
# Where “and” joins values, the source holds several entries; their conditions need not be identical. Equal entries are not always repeated.
# B1: AccR (SO_0839), LysR-type transcriptional regulator, His6-tagged recombinant (natural protein, Shewanella oneidensis, UniProt Q8EIK0 1-303, looked up)
# chain: MPDLNGMMLFAAVVRAKGFSQAARETGHPKSTISRKIAQLEEELGVRLLQRDTRNLSLTQVGALFYQHCDSIRNEVEAAKAVIESTHDDVSGSLRIAIPVSFSQELIANLCSGFMRLYPNVELDVQFTDNDIGLVGEGYDIAIKYGPLQSSDLVARLLFERQPILVASPGYLKTRGTPATPKELSDHSGILLGTSRSAPIWPLGKGTRKTMVSFQRKVRVNSPIMVKQLALDDFGIAMLSNSACKTELANGQLVPILQEWPMEPFKVYGVYSSRRQLATNISAFLDFFVKRFSSQESLQSLMG
# notes: AccR (SO_0839), LTTR of 303 amino acids, Shewanella oneidensis; full-length; calculated molecular weight of the recombinant protein 35.6 kDa; The methods describe growth of the BL21(DE3) cells in M9 medium supplemented with selenomethionine; also called ACCase regulator; His-tagged AccR; source: E. coli BL21(DE3), pET-28a, purified (Ni-NTA, size-exclusion chromatography); not shown: His6, …
# B2: AccR effector-binding domain (EBD, residues 86-303) (domain or fragment, Shewanella oneidensis, UniProt Q8EIK0 86-303, looked up)
# chain: THDDVSGSLRIAIPVSFSQELIANLCSGFMRLYPNVELDVQFTDNDIGLVGEGYDIAIKYGPLQSSDLVARLLFERQPILVASPGYLKTRGTPATPKELSDHSGILLGTSRSAPIWPLGKGTRKTMVSFQRKVRVNSPIMVKQLALDDFGIAMLSNSACKTELANGQLVPILQEWPMEPFKVYGVYSSRRQLATNISAFLDFFVKRFSSQESLQSLMG
# notes: the model holds residues 89-302 (subunit A) and 90-300 (subunit B); The methods describe expression in M9 medium with selenomethionine, but also say that diffraction data were collected with native protein crystals; also called AccR EBD; regulatory domain; source: E. coli BL21(DE3), pET-28a, purified (Ni-NTA, size-exclusion chromatography)
# Assays:
# [1] = biological target: AccR (LysR-type transcriptional regulator, SO_0839) (Shewanella oneidensis, UniProt Q8EIK0); assay: ITC in HEPES buffer (Kd […]); also MST ([…]); no binding seen by ITC in Tris buffer
# [2] = biological target: the molecule itself; assay: SEC; His-tagged recombinant AccR purified from E. coli run on a Superdex 200HR 10/30 column (FPLC); two peaks with estimated molecular weights of ~67 and ~140 kDa
# [3] = biological target: the molecule itself; assay: crystal structure; AccR EBD (residues 86-303), apo form, hanging-drop vapor diffusion, 27.5% PEG 4000, 100 mM HEPES pH 7.0, 20°C; space group C2, one dimer in the asymmetric unit
molecule,measurement,setting,value
CC(=O)SCCNC(=O)CCNC(=O)[C@H](O)C(C)(C)COP(=O)(O)OP(=O)(O)OC[C@H]1O[C@@H](n2cnc3c(N)ncnc32)[C@H](O)[C@@H]1OP(=O)(O)O [acetyl-CoA],Kd,[1],8.4 ± 1.3 µM
B1,stoichiometry N,[2],2 and 4
B2,binding result,[3],binds
